The supplement of paper PMC5998384

Key:
HeLa Kyoto [1] = assay: melting temperature (median over replicates), in situ; higher = more thermally stable
HeLa Kyoto [2] = assay: thermal stability score vs G1/S (z-score of summed log2 fold changes over temperatures); higher = more thermally stable than in G1/S
HeLa Kyoto [3] = assay: solubility change mitosis vs G1/S (difference of NP-40 vs SDS log2 ratios) (log2 ratio difference); higher = more soluble in mitosis
HeLa Kyoto [4] = assay: solubility in G1/S (NP-40 vs SDS abundance) (log2 ratio); higher = more soluble; details: cell cycle stage: G1/S
[5] = cell cycle stage: early G1 (4.5 h after nocodazole release)
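For melting temperature (median over replicates), in situ in this document: HeLa Kyoto cells synchronized by double thymidine or nocodazole block, proteins quantified by TMT10plex mass spectrometry, three independent biological replicates.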
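For solubility change mitosis vs G1/S (difference of NP-40 vs SDS log2 ratios) in this document: synchronized HeLa Kyoto cells (double thymidine block for G1/S, nocodazole release for mitosis), protein amounts in NP-40 versus SDS lysates quantified by mass spectrometry, three biological replicates.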
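For solubility in G1/S (NP-40 vs SDS abundance) in this document: HeLa Kyoto cells arrested at G1/S by double thymidine block, proteins quantified by TMT10plex mass spectrometry in mild NP-40 versus SDS extracts, three biological replicates.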
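For thermal stability score vs G1/S (z-score of summed log2 fold changes over temperatures) in this document: synchronized HeLa Kyoto cells, proteins quantified by TMT10plex mass spectrometry, three biological replicates, mitosis taken 0.5 h after nocodazole release, G1/S directly after double thymidine block.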

| Sequence | melting temperature (HeLa Kyoto [1]; cell cycle stage: G1/S) | melting temperature (HeLa Kyoto [1]; cell cycle stage: mitosis) | thermal stability score (HeLa Kyoto [2]; [5]) | thermal stability score (HeLa Kyoto [2]; cell cycle stage: mitosis) | solubility change mitosis (log2) (HeLa Kyoto [3]) | solubility in G1/S (log2) (HeLa Kyoto [4]) |
| --- | --- | --- | --- | --- | --- | --- |
| MLWPRLAAAEWAALAWELLGASVLLIAVRWLVRRLGPRPGGLGRSGTPVPPPSAAAAPASGEMTMDALLARLKLLNPDDLREEIVKAGLKCGPITSTTRFIFEKKLAQALLEQGGRLSSFYHHEAGVTALSQDPQRILKPAEGNPTDQAGFSEDRDFGYSVGLNPPEEEAVTSKTCSVPPSDTDTYRAGATASKEPPLYYGVCPVYEDVPARNERIYVYENKKEALQAVKMIKGSRFKAFSTREDAEKFARGICDYFPSPSKTSLPLSPVKTAPLFSNDRLKDGLCLSESETVNKERANSYKNPRTQDLTAKLRKAVEKGEEDTFSDLIWSNPRYLIGSGDNPTIVQEGCRYNVMHVAAKENQASICQLTLDVLENPDFMRLMYPDDDEAMLQKRIRYVVDLYLNTPDKMGYDTPLHFACKFGNADVVNVLSSHHLIVKNSRNKYDKTPEDVICERSKNKSVELKERIREYLKGHYYVPLLRAEETSSPVIGELWSPDQTAEASHVSRYGGSPRDPVLTLRAFAGPLSPAKAEDFRKLWKTPPREKAGFLHHVKKSDPERGFERVGRELAHELGYPWVEYWEFLGCFVDLSSQEGLQRLEEYLTQQEIGKKAQQETGEREASCRDKATTSGSNSISVRAFLDEDDMSLEEIKNRQNAARNNSPPTVGAFGHTRCSAFPLEQEADLIEAAEPGGPHSSRNGLCHPLNHSRTLAGKRPKAPRGEEAHLPPVSDLTVEFDKLNLQNIGRSVSKTPDESTKTKDQILTSRINAVERDLLEPSPADQLGNGHRRTESEMSARIAKMSLSPSSPRHEDQLEVTREPARRLFLFGEEPSKLDQDVLAALECADVDPHQFPAVHRWKSAVLCYSPSDRQSWPSPAVKGRFKSQLPDLSGPHSYSPGRNSVAGSNPAKPGLGSPGRYSPVHGSQLRRMARLAELAAL [ANKLE2] | 47.5 °C | 48.1 °C | 2.02 | 3.19 | 0.146 | 0.122 |
| MLYLIGLGLGDAKDITVKGLEVVRRCSRVYLEAYTSVLTVGKEALEEFYGRKLVVADREEVEQEADNILKDADISDVAFLVVGDPFGATTHSDLVLRATKLGIPYRVIHNASIMNAVGCCGLQLYKFGETVSIVFWTDTWRPESFFDKVKKNRQNGMHTLCLLDIKVKEQSLENLIKGRKIYEPPRYMSVNQAAQQLLEIVQNQRIRGEEPAVTEETLCVGLARVGADDQKIAAGTLRQMCTVDLGEPLHSLIITGGSIHPMEMEMLSLFSIPENSSESQSINGL [DPH5] | 54.6 °C | 55.3 °C | 1.75 | 1.39 | -0.136 | 0.11 |
| MMAAGAALALALWLLMPPVEVGGAGPPPIQDGEFTFLLPAGRKQCFYQSAPANASLETEYQVIGGAGLDVDFTLESPQGVLLVSESRKADGVHTVEPTEAGDYKLCFDNSFSTISEKLVFFELIFDSLQDDEEVEGWAEAVEPEEMLDVKMEDIKESIETMRTRLERSIQMLTLLRAFEARDRNLQEGNLERVNFWSAVNVAVLLLVAVLQVCTLKRFFQDKRPVPT [TMED1] | 55.1 °C | 57.2 °C | 2.89 | 2.9 | -0.147 | 0.437 |
| MMDLRNTPAKSLDKFIEDYLLPDTCFRMQINHAIDIICGFLKERCFRGSSYPVCVSKVVKGGSSGKGTTLRGRSDADLVVFLSPLTTFQDQLNRRGEFIQEIRRQLEACQRERAFSVKFEVQAPRWGNPRALSFVLSSLQLGEGVEFDVLPAFDALGQLTGGYKPNPQIYVKLIEECTDLQKEGEFSTCFTELQRDFLKQRPTKLKSLIRLVKHWYQNCKKKLGKLPPQYALELLTVYAWERGSMKTHFNTAQGFRTVLELVINYQQLCIYWTKYYDFKNPIIEKYLRRQLTKPRPVILDPADPTGNLGGGDPKGWRQLAQEAEAWLNYPCFKNWDGSPVSSWILLAESNSADDETDDPRRYQKYGYIGTHEYPHFSHRPSTLQAASTPQAEEDWTCTIL [OAS1] | 50.5 °C | 49.5 °C | -0.255 | 0.00402 | -0.0843 | 0.134 |
| MMGHRPVLVLSQNTKRESGRKVQSGNINAAKTIADIIRTCLGPKSMMKMLLDPMGGIVMTNDGNAILREIQVQHPAAKSMIEISRTQDEEVGDGTTSVIILAGEMLSVAEHFLEQQMHPTVVISAYRKALDDMISTLKKISIPVDISDSDMMLNIINSSITTKAISRWSSLACNIALDAVKMVQFEENGRKEIDIKKYARVEKIPGGIIEDSCVLRGVMINKDVTHPRMRRYIKNPRIVLLDSSLEYKKGESQTDIEITREEDFTRILQMEEEYIQQLCEDIIQLKPDVVITEKGISDLAQHYLMRANITAIRRVRKTDNNRIARACGARIVSRPEELREDDVGTGAGLLEIKKIGDEYFTFITDCKDPKACTILLRGASKEILSEVERNLQDAMQVCRNVLLDPQLVPGGGASEMAVAHALTEKSKAMTGVEQWPYRAVAQALEVIPRTLIQNCGASTIRLLTSLRAKHTQENCETWGVNGETGTLVDMKELGIWEPLAVKLQTYKTAVETAVLLLRIDDIVSGHKKKGDDQSRQGGAPDAGQE [CCT3] | 54 °C | 53.6 °C | 0.0574 | -0.798 | -0.131 | 0.216 |
| MMLGTEGGEGFVVKVRGLPWSCSADEVQRFFSDCKIQNGAQGIRFIYTREGRPSGEAFVELESEDEVKLALKKDRETMGHRYVEVFKSNNVEMDWVLKHTGPNSPDTANDGFVRLRGLPFGCSKEEIVQFFSGLEIVPNGITLPVDFQGRSTGEAFVQFASQEIAEKALKKHKERIGHRYIEIFKSSRAEVRTHYDPPRKLMAMQRPGPYDRPGAGRGYNSIGRGAGFERMRRGAYGGGYGGYDDYNGYNDGYGFGSDRFGRDLNYCFSGMSDHRYGDGGSTFQSTTGHCVHMRGLPYRATENDIYNFFSPLNPVRVHIEIGPDGRVTGEADVEFATHEDAVAAMSKDKANMQHRYVELFLNSTAGASGGAYEHRYVELFLNSTAGASGGAYGSQMMGGMGLSNQSSYGGPASQQLSGGYGGGYGGQSSMSGYDQVLQENSSDFQSNIA [HNRNPH1] | 47.5 °C | 48.2 °C | 3.39 | 8.7 | -0.00635 | 0.047 |
| MMNKLYIGNLSPAVTADDLRQLFGDRKLPLAGQVLLKSGYAFVDYPDQNWAIRAIETLSGKVELHGKIMEVDYSVSKKLRSRKIQIRNIPPHLQWEVLDGLLAQYGTVENVEQVNTDTETAVVNVTYATREEAKIAMEKLSGHQFENYSFKISYIPDEEVSSPSPPQRAQRGDHSSREQGHAPGGTSQARQIDFPLRILVPTQFVGAIIGKEGLTIKNITKQTQSRVDIHRKENSGAAEKPVTIHATPEGTSEACRMILEIMQKEADETKLAEEIPLKILAHNGLVGRLIGKEGRNLKKIEHETGTKITISSLQDLSIYNPERTITVKGTVEACASAEIEIMKKLREAFENDMLAVNQQANLIPGLNLSALGIFSTGLSVLSPPAGPRGAPPAAPYHPFTTHSGYFSSLYPHHQFGPFPHHHSYPEQEIVNLFIPTQAVGAIIGKKGAHIKQLARFAGASIKIAPAEGPDVSERMVIITGPPEAQFKAQGRIFGKLKEENFFNPKEEVKLEAHIRVPSSTAGRVIGKGGKTVNELQNLTSAEVIVPRDQTPDENEEVIVRIIGHFFASQTAQRKIREIVQQVKQQEQKYPQGVASQRSK [IGF2BP2] | 48.7 °C | 47.8 °C | -0.347 | -0.134 | 0.0614 | -0.0149 |
| MMRLRGSGMLRDLLLRSPAGVSATLRRAQPLVTLCRRPRGGGRPAAGPAAAARLHPWWGGGGWPAEPLARGLSSSPSEILQELGKGSTHPQPGVSPPAAPAAPGPKDGPGETDAFGNSEGKELVASGENKIKQGLLPSLEDLLFYTIAEGQEKIPVHKFITALKSTGLRTSDPRLKECMDMLRLTLQTTSDGVMLDKDLFKKCVQSNIVLLTQAFRRKFVIPDFMSFTSHIDELYESAKKQSGGKVADYIPQLAKFSPDLWGVSVCTVDGQRHSTGDTKVPFCLQSCVKPLKYAIAVNDLGTEYVHRYVGKEPSGLRFNKLFLNEDDKPHNPMVNAGAIVVTSLIKQGVNNAEKFDYVMQFLNKMAGNEYVGFSNATFQSERESGDRNFAIGYYLKEKKCFPEGTDMVGILDFYFQLCSIEVTCESASVMAATLANGGFCPITGERVLSPEAVRNTLSLMHSCGMYDFSGQFAFHVGLPAKSGVAGGILLVVPNVMGMMCWSPPLDKMGNSVKGIHFCHDLVSLCNFHNYDNLRHFAKKLDPRREGGDQRVKSVINLLFAAYTGDVSALRRFALSAMDMEQRDYDSRTALHVAAAEGHVEVVKFLLEACKVNPFPKDRWNNTPMDEALHFGHHDVFKILQEYQVQYTPQGDSDNGKENQTVHKNLDGLL | 49.7 °C | 50.4 °C | 0.55 | 2.21 | -0.0383 | 0.0237 |
| MNAGSDPVVIVSAARTIIGSFNGALAAVPVQDLGSTVIKEVLKRATVAPEDVSEVIFGHVLAAGCGQNPVRQASVGAGIPYSVPAWSCQMICGSGLKAVCLAVQSIGIGDSSIVVAGGMENMSKAPHLAYLRTGVKIGEMPLTDSILCDGLTDAFHNCHMGITAENVAKKWQVSREDQDKVAVLSQNRTENAQKAGHFDKEIVPVLVSTRKGLIEVKTDEFPRHGSNIEAMSKLKPYFLTDGTGTVTPANASGINDGAAAVVLMKKSEADKRGLTPLARIVSWSQVGVEPSIMGIGPIPAIKQAVTKAGWSLEDVDIFEINEAFAAVSAAIVKELGLNPEKVNIEGGAIALGHPLGASGCRILVTLLHTLERMGRSRGVAALCIGGGMGIAMCVQRE [ACAT2] | 58.4 °C | 58.2 °C | -0.261 | -1.17 | -0.0395 | 0.305 |
| MNEVSVIKEGWLHKRGEYIKTWRPRYFLLKSDGSFIGYKERPEAPDQTLPPLNNFSVAECQLMKTERPRPNTFVIRCLQWTTVIERTFHVDSPDEREEWMRAIQMVANSLKQRAPGEDPMDYKCGSPSDSSTTEEMEVAVSKARAKVTMNDFDYLKLLGKGTFGKVILVREKATGRYYAMKILRKEVIIAKDEVAHTVTESRVLQNTRHPFLTALKYAFQTHDRLCFVMEYANGGELFFHLSRERVFTEERARFYGAEIVSALEYLHSRDVVYRDIKLENLMLDKDGHIKITDFGLCKEGISDGATMKTFCGTPEYLAPEVLEDNDYGRAVDWWGLGVVMYEMMCGRLPFYNQDHERLFELILMEEIRFPRTLSPEAKSLLAGLLKKDPKQRLGGGPSDAKEVMEHRFFLSINWQDVVQKKLLPPFKPQVTSEVDTRYFDDEFTAQSITITPPDRYDSLGLLELDQRTHFPQFSYSASIRE [AKT2] | 50.5 °C | 50.2 °C | 1.03 | 0.619 | -0.26 | -0.0498 |
| MNGEADCPTDLEMAAPKGQDRWSQEDMLTLLECMKNNLPSNDSSKFKTTESHMDWEKVAFKDFSGDMCKLKWVEISNEVRKFRTLTELILDAQEHVKNPYKGKKLKKHPDFPKKPLTPYFRFFMEKRAKYAKLHPEMSNLDLTKILSKKYKELPEKKKMKYIQDFQREKQEFERNLARFREDHPDLIQNAKKSDIPEKPKTPQQLWYTHEKKVYLKVRPDATTKEVKDSLGKQWSQLSDKKRLKWIHKALEQRKEYEEIMRDYIQKHPELNISEEGITKSTLTKAERQLKDKFDGRPTKPPPNSYSLYCAELMANMKDVPSTERMVLCSQQWKLLSQKEKDAYHKKCDQKKKDYEVELLRFLESLPEEEQQRVLGEEKMLNINKKQATSPASKKPAQEGGKGGSEKPKRPVSAMFIFSEEKRRQLQEERPELSESELTRLLARMWNDLSEKKKAKYKAREAALKAQSERKPGGEREERGKLPESPKRAEEIWQQSVIGDYLARFKNDRVKALKAMEMTWNNMEKKEKLMWIKKAAEDQKRYERELSEMRAPPAATNSSKKMKFQGEPKKPPMNGYQKFSQELLSNGELNHLPLKERMVEIGSRWQRISQSQKEHYKKLAEEQQKQYKVHLDLWVKSLSPQDRAAYKEYISNKRKSMTKLRGPNPKSSRTTLQSKSESEEDDEEDEDDEDEDEEEEDDENGDSSEDGGDSSESSSEDESEDGDENEEDDEDEDDDEDDDEDEDNESEGSSSSSSSSGDSSDSDSN [UBTF] | 47.2 °C |  | 8.89 | 15.5 | 0.149 | -1.89 |
